Consider six molecules from paper PMC12368724, “Impact of Changes in Buffer Ionic Concentration and Mutations on a GH1 β‑Glucosidase Homodimer” (ACS Omega, 2025).

In series [1] the target is T1, GH1 β-glucosidase from Spodoptera frugiperda (Sfβgly), wild-type (Spodoptera frugiperda). Kind of series: SEC; dimer to monomers; 50 mM phosphate buffer pH 6 (P50), 5 °C; KD is the slope of [M]^2 versus [D] from peak areas. Particulars: both partners purified.
In series [2] the target is T1, GH1 β-glucosidase from Spodoptera …. The series is described as follows: SEC; dimer to monomers; 25 mM phosphate buffer pH 6 (P25), 5 °C; KD is the slope of [M]^2 versus [D] from peak areas. The following applies: both partners purified.
For series [3] the target is unchanged. The series is described as follows: SEC; dimer to monomers; 5 mM phosphate buffer pH 6 (P5), 5 °C; KD is the slope of [M]^2 versus [D] from peak areas. The following applies: both partners purified. (In general: In gel filtration, larger molecules generally elute earlier.)
The target is the same in series [4]. Kind of series: SEC; dimer to monomers; 75 mM phosphate buffer pH 6 (P75), 5 °C; KD is the slope of [M]^2 versus [D] from peak areas. The following applies: both partners purified.
Series [5] has the same target. The series is described as follows: SEC-MALS; 90 μM Sfβgly in 100 mM sodium phosphate buffer pH 6 (P100) at 5 °C; two Superdex 200 columns in tandem. The following applies: both partners purified.
For series [6] the target is unchanged. The series is described as follows: SEC; dimer to monomers; 100 mM phosphate buffer pH 6 (P100), 5 °C; two Superdex 200 HR10/300 GL columns in tandem; KD is the slope of [M]^2 versus [D] from peak areas at several protein concentrations. The following applies: both partners purified.
The target is the same in series [7]. The series is described as above. The following applies: both partners purified. This is another data set of the same source.
Series [8] deals with the molecule itself. The series is described as above.

B1: GH1 β-glucosidase from Spodoptera frugiperda (Sfβgly), wild-type (enzyme)
chain: QQRRFPDDFLFGTATASYQIEGAWDEDGKGENIWDYMVHNTPEVIRDLSNGDIAADSYHNYKRDVEMMRELGLDAYRFSLSWARILPTGMANEVNPAGIAFYNNYIDEMLKYNITPLITLYHWDLPQKLQELGGFANPLISDWFEDYARVVFENFGDRVKMFITFNEPREICFEGYGSATKAPILNATAMGAYLCAKNLVTAHAKAYYLYDREFRPVQGGQCGITISVNWFGPATPTPEDEMAAELRRQGEWGIYAHPIFSAEGGFPKELSDKIAEKSAQQGYPWSRLPEFTEEEKAFVRGTSDFFGVNHYTAFLVSATERKGPYPVPSLLDDVDTGSWADDSWLKSASAWLTLAPNSIHTALTHLNNLYNKPVFYITENGWSTDESRENSLIDDDRIQYYRASMESLLNCLDDGINLKGYMAWSLMDNFEWMEGYIERFGLYEVDFSDPARTRTPRKAAFVYKHIIKHRVVDYEYEPETMVMTIDEGH
modifications: Monomer given, self-associates to a C2 homodimer. Limits by convention from the 5CG0 entity; paper numbering = entity + 20 (precursor numbering) / Monomer given, self-associates to a C2 homodimer. …
With B1, the Kd (as a rule, a measure of binding affinity in units of concentration) was 9.5 µM in series [1]; 78 µM in series [2]; 135 µM in series [3]; 9.9 µM in series [4]; 7 µM in series [6]; 8 µM in series [7]. For the same molecule, in series [5], the stoichiometry N – broadly, a count of units in the complex or per binding partner – amounted to 2.

B2: Sfβgly mutant L214A (enzyme)
chain: QQRRFPDDFLFGTATASYQIEGAWDEDGKGENIWDYMVHNTPEVIRDLSNGDIAADSYHNYKRDVEMMRELGLDAYRFSLSWARILPTGMANEVNPAGIAFYNNYIDEMLKYNITPLITLYHWDLPQKLQELGGFANPLISDWFEDYARVVFENFGDRVKMFITFNEPREICFEGYGSATKAPILNATAMGAYACAKNLVTAHAKAYYLYDREFRPVQGGQCGITISVNWFGPATPTPEDEMAAELRRQGEWGIYAHPIFSAEGGFPKELSDKIAEKSAQQGYPWSRLPEFTEEEKAFVRGTSDFFGVNHYTAFLVSATERKGPYPVPSLLDDVDTGSWADDSWLKSASAWLTLAPNSIHTALTHLNNLYNKPVFYITENGWSTDESRENSLIDDDRIQYYRASMESLLNCLDDGINLKGYMAWSLMDNFEWMEGYIERFGLYEVDFSDPARTRTPRKAAFVYKHIIKHRVVDYEYEPETMVMTIDEGH
In turn, B2 had a Kd in series [8] of 5400 µM.

B3: Sfβgly mutant M210A (enzyme)
chain: QQRRFPDDFLFGTATASYQIEGAWDEDGKGENIWDYMVHNTPEVIRDLSNGDIAADSYHNYKRDVEMMRELGLDAYRFSLSWARILPTGMANEVNPAGIAFYNNYIDEMLKYNITPLITLYHWDLPQKLQELGGFANPLISDWFEDYARVVFENFGDRVKMFITFNEPREICFEGYGSATKAPILNATAAGAYLCAKNLVTAHAKAYYLYDREFRPVQGGQCGITISVNWFGPATPTPEDEMAAELRRQGEWGIYAHPIFSAEGGFPKELSDKIAEKSAQQGYPWSRLPEFTEEEKAFVRGTSDFFGVNHYTAFLVSATERKGPYPVPSLLDDVDTGSWADDSWLKSASAWLTLAPNSIHTALTHLNNLYNKPVFYITENGWSTDESRENSLIDDDRIQYYRASMESLLNCLDDGINLKGYMAWSLMDNFEWMEGYIERFGLYEVDFSDPARTRTPRKAAFVYKHIIKHRVVDYEYEPETMVMTIDEGH
B3 displayed a Kd in series [8] of 3600 µM.

B4: Sfβgly mutant D166S (enzyme)
chain: QQRRFPDDFLFGTATASYQIEGAWDEDGKGENIWDYMVHNTPEVIRDLSNGDIAADSYHNYKRDVEMMRELGLDAYRFSLSWARILPTGMANEVNPAGIAFYNNYIDEMLKYNITPLITLYHWDLPQKLQELGGFANPLISDWFESYARVVFENFGDRVKMFITFNEPREICFEGYGSATKAPILNATAMGAYLCAKNLVTAHAKAYYLYDREFRPVQGGQCGITISVNWFGPATPTPEDEMAAELRRQGEWGIYAHPIFSAEGGFPKELSDKIAEKSAQQGYPWSRLPEFTEEEKAFVRGTSDFFGVNHYTAFLVSATERKGPYPVPSLLDDVDTGSWADDSWLKSASAWLTLAPNSIHTALTHLNNLYNKPVFYITENGWSTDESRENSLIDDDRIQYYRASMESLLNCLDDGINLKGYMAWSLMDNFEWMEGYIERFGLYEVDFSDPARTRTPRKAAFVYKHIIKHRVVDYEYEPETMVMTIDEGH
On to B4, for which, in series [8], the Kd was 100 µM.

B5: Sfβgly mutant N112S (enzyme)
chain: QQRRFPDDFLFGTATASYQIEGAWDEDGKGENIWDYMVHNTPEVIRDLSNGDIAADSYHNYKRDVEMMRELGLDAYRFSLSWARILPTGMASEVNPAGIAFYNNYIDEMLKYNITPLITLYHWDLPQKLQELGGFANPLISDWFEDYARVVFENFGDRVKMFITFNEPREICFEGYGSATKAPILNATAMGAYLCAKNLVTAHAKAYYLYDREFRPVQGGQCGITISVNWFGPATPTPEDEMAAELRRQGEWGIYAHPIFSAEGGFPKELSDKIAEKSAQQGYPWSRLPEFTEEEKAFVRGTSDFFGVNHYTAFLVSATERKGPYPVPSLLDDVDTGSWADDSWLKSASAWLTLAPNSIHTALTHLNNLYNKPVFYITENGWSTDESRENSLIDDDRIQYYRASMESLLNCLDDGINLKGYMAWSLMDNFEWMEGYIERFGLYEVDFSDPARTRTPRKAAFVYKHIIKHRVVDYEYEPETMVMTIDEGH
B5 showed a Kd in series [8] of 1200 µM. This Kd is about 12-fold higher than that of the molecule before.

B6: Sfβgly mutant N157S (enzyme)
chain: QQRRFPDDFLFGTATASYQIEGAWDEDGKGENIWDYMVHNTPEVIRDLSNGDIAADSYHNYKRDVEMMRELGLDAYRFSLSWARILPTGMANEVNPAGIAFYNNYIDEMLKYNITPLITLYHWDLPQKLQELGGFASPLISDWFEDYARVVFENFGDRVKMFITFNEPREICFEGYGSATKAPILNATAMGAYLCAKNLVTAHAKAYYLYDREFRPVQGGQCGITISVNWFGPATPTPEDEMAAELRRQGEWGIYAHPIFSAEGGFPKELSDKIAEKSAQQGYPWSRLPEFTEEEKAFVRGTSDFFGVNHYTAFLVSATERKGPYPVPSLLDDVDTGSWADDSWLKSASAWLTLAPNSIHTALTHLNNLYNKPVFYITENGWSTDESRENSLIDDDRIQYYRASMESLLNCLDDGINLKGYMAWSLMDNFEWMEGYIERFGLYEVDFSDPARTRTPRKAAFVYKHIIKHRVVDYEYEPETMVMTIDEGH
For B6, the affinity in series [8], expressed as Kd, was 28 µM.
